In the assay the target is ArdA protein from the conjugative transposon Tn916 (Enterococcus faecalis). The assay is described as follows: crystal structure.

One may read the stoichiometry N as the number of molecules, sites or subunits per partner or assembly.

With “ArdA protein from the conjugative transposon Tn916 (natural protein)”, the stoichiometry N was 2.

For the origin of these results see article PMC2731889.
